T1: ULK3(h) (human, UniProt Q6PHR2 1-472, limits assumed)
T1 sequence (looked up): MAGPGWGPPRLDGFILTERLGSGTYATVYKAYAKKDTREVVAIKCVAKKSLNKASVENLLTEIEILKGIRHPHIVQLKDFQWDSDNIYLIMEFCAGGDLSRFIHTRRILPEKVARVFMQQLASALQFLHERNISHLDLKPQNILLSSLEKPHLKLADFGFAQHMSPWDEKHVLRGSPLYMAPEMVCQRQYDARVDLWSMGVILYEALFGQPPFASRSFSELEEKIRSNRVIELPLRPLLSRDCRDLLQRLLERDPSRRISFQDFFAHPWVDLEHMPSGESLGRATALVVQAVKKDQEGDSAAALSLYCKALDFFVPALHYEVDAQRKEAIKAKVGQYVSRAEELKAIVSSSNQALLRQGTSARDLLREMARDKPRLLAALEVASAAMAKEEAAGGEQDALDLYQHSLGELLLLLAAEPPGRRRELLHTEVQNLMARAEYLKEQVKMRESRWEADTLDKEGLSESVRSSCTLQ

T2: PhKγ2(h) (human, UniProt P15735 1-406, limits assumed)
T2 sequence (looked up): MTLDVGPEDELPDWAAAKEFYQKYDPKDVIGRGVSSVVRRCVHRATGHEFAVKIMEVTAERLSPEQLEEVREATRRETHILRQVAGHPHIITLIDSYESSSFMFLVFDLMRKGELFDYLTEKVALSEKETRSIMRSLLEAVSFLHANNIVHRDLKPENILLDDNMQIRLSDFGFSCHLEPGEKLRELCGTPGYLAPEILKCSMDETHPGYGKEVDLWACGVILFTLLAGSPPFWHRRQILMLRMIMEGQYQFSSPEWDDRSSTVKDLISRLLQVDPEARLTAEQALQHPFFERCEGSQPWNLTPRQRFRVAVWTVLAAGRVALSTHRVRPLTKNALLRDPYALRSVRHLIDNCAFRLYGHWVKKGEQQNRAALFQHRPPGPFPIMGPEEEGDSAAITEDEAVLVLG

T3: PKD2(h) (human, UniProt Q9BZL6 1-878, limits assumed)
T3 sequence (looked up): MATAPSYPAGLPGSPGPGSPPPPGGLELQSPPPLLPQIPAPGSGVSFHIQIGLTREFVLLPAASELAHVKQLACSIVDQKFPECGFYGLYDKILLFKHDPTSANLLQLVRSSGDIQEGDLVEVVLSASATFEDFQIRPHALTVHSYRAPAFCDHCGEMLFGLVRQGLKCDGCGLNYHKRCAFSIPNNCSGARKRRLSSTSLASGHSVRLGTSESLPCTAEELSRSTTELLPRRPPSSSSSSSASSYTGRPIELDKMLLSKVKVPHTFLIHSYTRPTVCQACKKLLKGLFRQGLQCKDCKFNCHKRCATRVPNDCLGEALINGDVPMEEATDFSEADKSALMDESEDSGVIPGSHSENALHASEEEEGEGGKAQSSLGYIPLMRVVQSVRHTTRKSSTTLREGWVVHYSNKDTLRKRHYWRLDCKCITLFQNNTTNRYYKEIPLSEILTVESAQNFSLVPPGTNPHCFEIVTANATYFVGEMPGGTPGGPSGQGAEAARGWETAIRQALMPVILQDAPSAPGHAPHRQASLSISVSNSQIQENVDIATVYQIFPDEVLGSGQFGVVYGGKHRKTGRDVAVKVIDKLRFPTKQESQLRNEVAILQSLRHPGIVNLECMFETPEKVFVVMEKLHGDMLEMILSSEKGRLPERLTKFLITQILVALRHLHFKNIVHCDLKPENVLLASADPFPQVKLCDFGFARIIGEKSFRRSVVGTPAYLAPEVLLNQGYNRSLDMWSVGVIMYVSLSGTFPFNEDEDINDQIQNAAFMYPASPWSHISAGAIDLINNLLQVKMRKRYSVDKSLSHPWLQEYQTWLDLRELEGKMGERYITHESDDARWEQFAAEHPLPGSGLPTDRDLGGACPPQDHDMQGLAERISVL


Legend:
Assay in all cases: cell-based or functional assay
ULK3(h) = molecular target: T1, ULK3(h)
MARK1(h) = MARK1(h) (human, UniProt Q9P0L2 1-795, limits assumed)
FGFR3(h) = FGFR3(h) (human, UniProt P22607 397-806)
AMPKa2(h) = AMPKa2(h) (human, UniProt P54646 1-552, limits assumed)
PKCτ(h) = PKCτ(h) (human)
Ab1(T315I)(h) = Ab1(T315I)(h) (human, UniProt P00519 27-1130, limits assumed)
IGF-1R(h) = IGF-1R(h) (human, UniProt P08069 959-1367, limits assumed)
Snk(h) = Snk(h) (human, UniProt Q9NYY3 1-685, limits assumed)
Ros(h) = Ros(h) (human, UniProt P08922 1883-2347, limits assumed)
CDK5/p35(h) = CDK5/p35(h) (human, UniProt Q00535 1-292; Q15078 1-307)
PhKγ2(h) = molecular target: T2, PhKγ2(h)
PAK4(h) = PAK4(h) (human, UniProt O96013 1-591, limits assumed)
SAPK2a(h) = SAPK2a(h) (human, UniProt Q16539 1-360)
Ab1(Y253F)(h) = Ab1(Y253F)(h) (human, UniProt P00519 27-1130, limits assumed)
FGFR1(V561M)(h) = FGFR1(V561M)(h) (human, UniProt P11362 456-765, limits assumed)
HIPK3(h) = HIPK3(h) (human, UniProt Q9H422 161-562, limits assumed)
ASK1(h) = ASK1(h) (human, UniProt Q99683 649-946, limits assumed)
PKD2(h) = molecular target: T3, PKD2(h)
EGFR(h) = EGFR(h) (human, UniProt P00533 696-1210, limits assumed)
Further: test concentration or dose not given here.

Chain of IGF-1R(h) (P08069 959-1367 limits assumed): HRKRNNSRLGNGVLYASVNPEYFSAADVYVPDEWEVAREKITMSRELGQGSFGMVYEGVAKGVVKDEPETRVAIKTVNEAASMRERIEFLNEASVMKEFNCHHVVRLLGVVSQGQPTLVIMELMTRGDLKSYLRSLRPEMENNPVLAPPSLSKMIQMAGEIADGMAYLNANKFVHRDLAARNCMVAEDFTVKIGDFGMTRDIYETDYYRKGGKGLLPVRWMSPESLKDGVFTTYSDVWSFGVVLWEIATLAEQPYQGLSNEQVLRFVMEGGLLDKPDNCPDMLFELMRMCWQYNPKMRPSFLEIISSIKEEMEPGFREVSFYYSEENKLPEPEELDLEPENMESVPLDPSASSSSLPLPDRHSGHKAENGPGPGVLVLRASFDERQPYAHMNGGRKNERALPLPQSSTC
Chain of SAPK2a(h) (Q16539 whole entry): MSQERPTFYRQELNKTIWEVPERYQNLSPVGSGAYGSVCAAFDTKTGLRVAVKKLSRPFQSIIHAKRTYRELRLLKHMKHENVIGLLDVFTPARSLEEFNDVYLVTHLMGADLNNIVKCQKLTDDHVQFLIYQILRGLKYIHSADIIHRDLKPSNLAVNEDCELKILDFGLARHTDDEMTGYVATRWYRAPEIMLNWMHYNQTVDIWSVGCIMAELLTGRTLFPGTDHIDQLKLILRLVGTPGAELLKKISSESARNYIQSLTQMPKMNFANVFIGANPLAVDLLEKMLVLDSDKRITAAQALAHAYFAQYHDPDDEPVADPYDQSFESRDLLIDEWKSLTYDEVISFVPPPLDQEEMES
Chain of Ab1(T315I)(h) (P00519 27-1130 T315I limits assumed): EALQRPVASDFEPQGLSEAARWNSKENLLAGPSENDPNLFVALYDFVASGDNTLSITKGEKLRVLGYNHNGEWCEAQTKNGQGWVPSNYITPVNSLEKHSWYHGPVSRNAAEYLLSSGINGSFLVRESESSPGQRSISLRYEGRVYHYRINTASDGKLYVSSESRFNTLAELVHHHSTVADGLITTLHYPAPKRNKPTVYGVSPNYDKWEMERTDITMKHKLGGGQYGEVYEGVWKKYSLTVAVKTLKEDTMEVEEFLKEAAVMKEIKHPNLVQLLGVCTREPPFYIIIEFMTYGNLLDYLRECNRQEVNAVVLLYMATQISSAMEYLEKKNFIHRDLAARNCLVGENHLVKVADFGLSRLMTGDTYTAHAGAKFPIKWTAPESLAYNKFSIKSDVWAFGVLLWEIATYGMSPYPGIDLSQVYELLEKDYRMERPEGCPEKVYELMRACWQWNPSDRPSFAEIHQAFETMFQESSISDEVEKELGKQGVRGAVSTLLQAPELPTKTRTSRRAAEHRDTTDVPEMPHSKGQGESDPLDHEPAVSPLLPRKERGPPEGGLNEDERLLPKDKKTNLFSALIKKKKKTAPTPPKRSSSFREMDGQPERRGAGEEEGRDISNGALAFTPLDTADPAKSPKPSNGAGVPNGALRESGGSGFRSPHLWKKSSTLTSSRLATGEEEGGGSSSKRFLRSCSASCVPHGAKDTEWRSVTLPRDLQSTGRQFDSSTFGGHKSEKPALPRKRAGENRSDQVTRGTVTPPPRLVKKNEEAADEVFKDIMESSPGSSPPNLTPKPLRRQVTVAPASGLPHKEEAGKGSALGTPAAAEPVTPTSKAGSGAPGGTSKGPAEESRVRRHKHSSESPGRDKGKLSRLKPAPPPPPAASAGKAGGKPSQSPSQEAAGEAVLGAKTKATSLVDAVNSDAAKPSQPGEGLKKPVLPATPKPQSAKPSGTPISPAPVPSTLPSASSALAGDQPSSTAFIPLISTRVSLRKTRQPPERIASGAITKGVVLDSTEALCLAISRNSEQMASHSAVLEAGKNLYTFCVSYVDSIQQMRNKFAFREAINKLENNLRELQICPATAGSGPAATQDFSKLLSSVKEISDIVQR
Chain of Snk(h) (Q9NYY3 whole entry): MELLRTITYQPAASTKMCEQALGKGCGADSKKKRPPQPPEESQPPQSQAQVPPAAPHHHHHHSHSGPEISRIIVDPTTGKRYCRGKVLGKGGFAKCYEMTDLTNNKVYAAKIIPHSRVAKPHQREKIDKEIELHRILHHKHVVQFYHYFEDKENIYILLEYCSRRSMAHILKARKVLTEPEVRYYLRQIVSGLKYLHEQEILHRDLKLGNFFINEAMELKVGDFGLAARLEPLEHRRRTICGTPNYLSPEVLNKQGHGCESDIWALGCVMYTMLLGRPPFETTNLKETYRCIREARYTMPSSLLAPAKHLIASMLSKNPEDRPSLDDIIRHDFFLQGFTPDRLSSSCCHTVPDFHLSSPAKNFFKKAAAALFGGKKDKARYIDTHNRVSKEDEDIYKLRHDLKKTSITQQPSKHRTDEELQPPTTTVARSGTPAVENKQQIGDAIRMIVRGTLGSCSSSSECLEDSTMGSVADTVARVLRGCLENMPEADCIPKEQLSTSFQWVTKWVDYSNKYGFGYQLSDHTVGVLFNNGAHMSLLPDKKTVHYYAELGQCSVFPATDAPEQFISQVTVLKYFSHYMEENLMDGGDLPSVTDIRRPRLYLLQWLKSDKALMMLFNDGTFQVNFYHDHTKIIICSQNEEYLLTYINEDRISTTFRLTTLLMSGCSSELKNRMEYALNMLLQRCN
Chain of FGFR3(h) (P22607 397-806 limits assumed): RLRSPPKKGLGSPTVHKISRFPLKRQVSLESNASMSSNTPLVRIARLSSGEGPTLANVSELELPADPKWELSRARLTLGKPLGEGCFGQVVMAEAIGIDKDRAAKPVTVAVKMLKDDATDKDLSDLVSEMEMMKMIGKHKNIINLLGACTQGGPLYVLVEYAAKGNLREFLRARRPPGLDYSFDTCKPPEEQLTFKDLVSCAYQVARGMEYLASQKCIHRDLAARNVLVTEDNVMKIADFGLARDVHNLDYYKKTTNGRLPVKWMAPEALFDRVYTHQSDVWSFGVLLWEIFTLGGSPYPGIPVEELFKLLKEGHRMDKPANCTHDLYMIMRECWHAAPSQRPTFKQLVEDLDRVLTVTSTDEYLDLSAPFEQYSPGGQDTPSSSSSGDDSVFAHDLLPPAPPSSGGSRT
Chain of Ros(h) (P08922 1883-2347 limits assumed): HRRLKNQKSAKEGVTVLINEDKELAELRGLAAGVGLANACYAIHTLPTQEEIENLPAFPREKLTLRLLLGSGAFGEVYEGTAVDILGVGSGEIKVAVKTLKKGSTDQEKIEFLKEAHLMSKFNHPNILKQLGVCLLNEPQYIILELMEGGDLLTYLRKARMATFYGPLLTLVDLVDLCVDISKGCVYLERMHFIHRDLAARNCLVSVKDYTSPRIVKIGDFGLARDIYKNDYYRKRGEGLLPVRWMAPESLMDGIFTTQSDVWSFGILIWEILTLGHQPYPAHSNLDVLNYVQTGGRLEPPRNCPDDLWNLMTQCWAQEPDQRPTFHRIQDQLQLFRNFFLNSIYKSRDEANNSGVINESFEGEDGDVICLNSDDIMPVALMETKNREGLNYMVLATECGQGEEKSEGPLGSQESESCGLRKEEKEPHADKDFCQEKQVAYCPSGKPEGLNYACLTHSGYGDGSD
Chain of FGFR1(V561M)(h) (P11362 456-765 V561M limits assumed): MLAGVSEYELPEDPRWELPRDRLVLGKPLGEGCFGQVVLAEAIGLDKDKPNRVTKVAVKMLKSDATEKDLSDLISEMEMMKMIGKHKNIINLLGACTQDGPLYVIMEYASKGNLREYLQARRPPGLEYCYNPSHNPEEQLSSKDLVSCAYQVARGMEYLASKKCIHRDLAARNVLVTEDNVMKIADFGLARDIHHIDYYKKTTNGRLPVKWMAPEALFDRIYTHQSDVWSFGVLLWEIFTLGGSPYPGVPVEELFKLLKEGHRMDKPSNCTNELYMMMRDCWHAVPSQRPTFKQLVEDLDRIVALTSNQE
Chain of HIPK3(h) (Q9H422 161-562 limits assumed): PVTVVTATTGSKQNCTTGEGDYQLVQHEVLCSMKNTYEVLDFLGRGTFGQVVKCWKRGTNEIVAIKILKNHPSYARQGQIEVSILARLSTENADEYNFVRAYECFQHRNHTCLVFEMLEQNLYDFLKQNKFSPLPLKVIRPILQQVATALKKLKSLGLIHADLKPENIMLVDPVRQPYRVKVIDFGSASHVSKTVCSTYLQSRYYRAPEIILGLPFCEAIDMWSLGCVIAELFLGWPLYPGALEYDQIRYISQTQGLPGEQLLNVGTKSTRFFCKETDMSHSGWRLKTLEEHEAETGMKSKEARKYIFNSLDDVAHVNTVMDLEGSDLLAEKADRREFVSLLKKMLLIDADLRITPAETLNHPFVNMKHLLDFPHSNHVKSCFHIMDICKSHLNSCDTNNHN
Chain of PAK4(h) (O96013 whole entry): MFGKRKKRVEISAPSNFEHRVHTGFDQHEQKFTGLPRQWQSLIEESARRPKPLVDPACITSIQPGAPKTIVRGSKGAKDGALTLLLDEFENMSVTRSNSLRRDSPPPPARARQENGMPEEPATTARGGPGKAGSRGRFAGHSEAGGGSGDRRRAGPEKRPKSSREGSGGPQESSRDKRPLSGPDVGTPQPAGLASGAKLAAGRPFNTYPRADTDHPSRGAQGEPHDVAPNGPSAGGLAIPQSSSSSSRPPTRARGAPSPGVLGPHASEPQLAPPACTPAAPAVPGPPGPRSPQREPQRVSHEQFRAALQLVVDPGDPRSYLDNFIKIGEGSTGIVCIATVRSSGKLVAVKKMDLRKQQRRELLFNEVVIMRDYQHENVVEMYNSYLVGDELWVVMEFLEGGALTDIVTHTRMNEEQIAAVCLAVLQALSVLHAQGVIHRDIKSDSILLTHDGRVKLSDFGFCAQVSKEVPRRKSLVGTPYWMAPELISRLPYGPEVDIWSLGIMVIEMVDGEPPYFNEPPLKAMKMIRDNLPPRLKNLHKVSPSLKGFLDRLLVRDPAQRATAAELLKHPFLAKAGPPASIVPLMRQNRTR
Chain of Ab1(Y253F)(h) (P00519 27-1130 Y253F limits assumed): as the sequence (P00519 27-1130 T315I limits assumed) above, with Y227F, I289T counted along it

Row | % activity (ULK3(h)) [%] | % activity (MARK1(h)) [%] | % activity (FGFR3(h)) [%] | % activity (AMPKa2(h)) [%] | % activity (PKCτ(h)) [%] | % activity (Ab1(T315I)(h)) [%] | % activity (IGF-1R(h)) [%] | % activity (Snk(h)) [%] | % activity (Ros(h)) [%] | % activity (CDK5/p35(h)) [%] | % activity (PhKγ2(h)) [%] | % activity (PAK4(h)) [%] | % activity (SAPK2a(h)) [%] | % activity (Ab1(Y253F)(h)) [%] | % activity (FGFR1(V561M)(h)) [%] | % activity (HIPK3(h)) [%] | % activity (ASK1(h)) [%] | % activity (PKD2(h)) [%] | % activity (EGFR(h)) [%] | Binder
1 | 147 | 120 | 0 | 58 | 46 | 105 | 90 | 131 | 99 | 76 | 38 | 89 | 85 | 78 | 74 | 105 | 69 | 25 | 16 | KAFAKLAARLYRKALARQLGVAA [MMI-0400]
2 | 167 | 132 | 102 | 54 | 68 | 97 | 119 | 114 | 95 | 79 | 46 | 94 | 90 | 86 | 74 | 93 | 80 | 33 | 21 | FAKLAARLYRKALARQLGVAA [MMI-0300]

From patent US20160200782A1 (MOERAE MATRIX, published 2016)
